System: Escherichia coli TOP10
Assay: shrunken log2 fold change of peptide-encoding DNA abundance (4.5 h post-induction vs induction); higher = less antimicrobial activity (less host growth inhibition)
Settings: time post-induction: 4.5 h; library: site-saturation at positions 5, 18, 19, 20
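Also: peptides expressed intracellularly from a pBAD plasmid library in pooled LB shake-flask culture, induced with 0.3% L-arabinose, DNA abundance read by NGS, three biological replicates, DESeq2 with apeglm shrinkage.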

RRIRYRPPRLPRPRPRPSQMPRP
shrunken log2 fold change: -0.706

RRIRYRPPRLPRPRPRPSRPPRP
shrunken log2 fold change: -0.084

RRIRYRPPRLPRPRPRPSSMPRP
shrunken log2 fold change: -0.999

RRIRYRPPRLPRPRPRPSSWPRP
shrunken log2 fold change: -0.284

RRIRYRPPRLPRPRPRPSTHPRP
shrunken log2 fold change: 0.396

RRIRYRPPRLPRPRPRPSYKPRP
shrunken log2 fold change: -1.22

RRIRYRPPRLPRPRPRPTCCPRP
shrunken log2 fold change: -0.194

RRIRYRPPRLPRPRPRPTCRPRP
shrunken log2 fold change: -0.157

RRIRYRPPRLPRPRPRPTCTPRP
shrunken log2 fold change: -0.229

RRIRYRPPRLPRPRPRPTDAPRP
shrunken log2 fold change: -0.0292

RRIRYRPPRLPRPRPRPTDTPRP
shrunken log2 fold change: -0.392

RRIRYRPPRLPRPRPRPTEIPRP
shrunken log2 fold change: -0.41

RRIRYRPPRLPRPRPRPTERPRP
shrunken log2 fold change: -0.532

RRIRYRPPRLPRPRPRPTFGPRP
shrunken log2 fold change: -0.0386

RRIRYRPPRLPRPRPRPTFNPRP
shrunken log2 fold change: -0.73

RRIRYRPPRLPRPRPRPTFSPRP
shrunken log2 fold change: -0.383

RRIRYRPPRLPRPRPRPTGGPRP
shrunken log2 fold change: -0.0407

RRIRYRPPRLPRPRPRPTGHPRP
shrunken log2 fold change: 0.0155

RRIRYRPPRLPRPRPRPTGPPRP
shrunken log2 fold change: 0.0492

RRIRYRPPRLPRPRPRPTHEPRP
shrunken log2 fold change: 0.0198

RRIRYRPPRLPRPRPRPTHKPRP
shrunken log2 fold change: -0.329

RRIRYRPPRLPRPRPRPTIFPRP
shrunken log2 fold change: -0.412

RRIRYRPPRLPRPRPRPTIGPRP
shrunken log2 fold change: -0.31

RRIRYRPPRLPRPRPRPTIRPRP
shrunken log2 fold change: -0.336

RRIRYRPPRLPRPRPRPTKGPRP
shrunken log2 fold change: -0.136

RRIRYRPPRLPRPRPRPTLGPRP
shrunken log2 fold change: -0.16

RRIRYRPPRLPRPRPRPTLNPRP
shrunken log2 fold change: -0.54

RRIRYRPPRLPRPRPRPTLYPRP
shrunken log2 fold change: -0.828

RRIRYRPPRLPRPRPRPTMDPRP
shrunken log2 fold change: -0.67

RRIRYRPPRLPRPRPRPTQLPRP
shrunken log2 fold change: -0.46

RRIRYRPPRLPRPRPRPTQQPRP
shrunken log2 fold change: -0.00797

RRIRYRPPRLPRPRPRPTRYPRP
shrunken log2 fold change: -0.469

RRIRYRPPRLPRPRPRPTTEPRP
shrunken log2 fold change: 0.00298

RRIRYRPPRLPRPRPRPTTKPRP
shrunken log2 fold change: -0.179

RRIRYRPPRLPRPRPRPTTWPRP
shrunken log2 fold change: -0.358

RRIRYRPPRLPRPRPRPTVMPRP
shrunken log2 fold change: -0.176

RRIRYRPPRLPRPRPRPTWEPRP
shrunken log2 fold change: -0.0387

RRIRYRPPRLPRPRPRPTWQPRP
shrunken log2 fold change: -0.255

RRIRYRPPRLPRPRPRPVAMPRP
shrunken log2 fold change: -0.464

RRIRYRPPRLPRPRPRPVDVPRP
shrunken log2 fold change: -0.359

RRIRYRPPRLPRPRPRPVEMPRP
shrunken log2 fold change: -1.52

RRIRYRPPRLPRPRPRPVFFPRP
shrunken log2 fold change: -0.367

RRIRYRPPRLPRPRPRPVGYPRP
shrunken log2 fold change: -0.152

RRIRYRPPRLPRPRPRPVHFPRP
shrunken log2 fold change: -0.451

RRIRYRPPRLPRPRPRPVLGPRP
shrunken log2 fold change: 0.0727

RRIRYRPPRLPRPRPRPVLVPRP
shrunken log2 fold change: -0.507

RRIRYRPPRLPRPRPRPVMKPRP
shrunken log2 fold change: -0.131

RRIRYRPPRLPRPRPRPVNVPRP
shrunken log2 fold change: -0.0979

RRIRYRPPRLPRPRPRPVQGPRP
shrunken log2 fold change: -0.0822

RRIRYRPPRLPRPRPRPVREPRP
shrunken log2 fold change: 0.484

RRIRYRPPRLPRPRPRPVTFPRP
shrunken log2 fold change: -0.0285

RRIRYRPPRLPRPRPRPVTKPRP
shrunken log2 fold change: -0.543

RRIRYRPPRLPRPRPRPVVPPRP
shrunken log2 fold change: -0.0502

RRIRYRPPRLPRPRPRPVWGPRP
shrunken log2 fold change: 0.432

RRIRYRPPRLPRPRPRPVWVPRP
shrunken log2 fold change: 0.127

RRIRYRPPRLPRPRPRPVWWPRP
shrunken log2 fold change: 0.113

RRIRYRPPRLPRPRPRPVYDPRP
shrunken log2 fold change: -0.112

RRIRYRPPRLPRPRPRPVYLPRP
shrunken log2 fold change: 0.00668

RRIRYRPPRLPRPRPRPVYMPRP
shrunken log2 fold change: -1.34

RRIRYRPPRLPRPRPRPVYVPRP
shrunken log2 fold change: -0.37

RRIRYRPPRLPRPRPRPWFNPRP
shrunken log2 fold change: -0.0994

RRIRYRPPRLPRPRPRPWFVPRP
shrunken log2 fold change: -0.271

RRIRYRPPRLPRPRPRPWGAPRP
shrunken log2 fold change: -0.315

RRIRYRPPRLPRPRPRPWHFPRP
shrunken log2 fold change: -1.15

RRIRYRPPRLPRPRPRPWHQPRP
shrunken log2 fold change: -0.883

RRIRYRPPRLPRPRPRPWKPPRP
shrunken log2 fold change: -0.2

RRIRYRPPRLPRPRPRPWLEPRP
shrunken log2 fold change: -0.118

RRIRYRPPRLPRPRPRPWLPPRP
shrunken log2 fold change: 0.1

RRIRYRPPRLPRPRPRPWLYPRP
shrunken log2 fold change: -0.613

RRIRYRPPRLPRPRPRPWNNPRP
shrunken log2 fold change: -0.656

RRIRYRPPRLPRPRPRPWPDPRP
shrunken log2 fold change: -0.137

RRIRYRPPRLPRPRPRPWRPPRP
shrunken log2 fold change: -0.0287

RRIRYRPPRLPRPRPRPWSTPRP
shrunken log2 fold change: -0.458

RRIRYRPPRLPRPRPRPWTFPRP
shrunken log2 fold change: -0.225

RRIRYRPPRLPRPRPRPWTHPRP
shrunken log2 fold change: -0.00149

RRIRYRPPRLPRPRPRPWVRPRP
shrunken log2 fold change: -0.108

RRIRYRPPRLPRPRPRPWWPPRP
shrunken log2 fold change: -0.254

RRIRYRPPRLPRPRPRPWYAPRP
shrunken log2 fold change: -1.43

RRIRYRPPRLPRPRPRPYAYPRP
shrunken log2 fold change: -0.948

RRIRYRPPRLPRPRPRPYCCPRP
shrunken log2 fold change: -0.145

RRIRYRPPRLPRPRPRPYCFPRP
shrunken log2 fold change: -1

RRIRYRPPRLPRPRPRPYEPPRP
shrunken log2 fold change: -0.248

RRIRYRPPRLPRPRPRPYFDPRP
shrunken log2 fold change: -0.27

RRIRYRPPRLPRPRPRPYFIPRP
shrunken log2 fold change: -0.629

RRIRYRPPRLPRPRPRPYGVPRP
shrunken log2 fold change: -0.00992

RRIRYRPPRLPRPRPRPYHGPRP
shrunken log2 fold change: -0.139

RRIRYRPPRLPRPRPRPYIEPRP
shrunken log2 fold change: -0.469

RRIRYRPPRLPRPRPRPYKIPRP
shrunken log2 fold change: -0.573

RRIRYRPPRLPRPRPRPYKLPRP
shrunken log2 fold change: -0.491

RRIRYRPPRLPRPRPRPYNAPRP
shrunken log2 fold change: -0.471

RRIRYRPPRLPRPRPRPYNKPRP
shrunken log2 fold change: -0.734

RRIRYRPPRLPRPRPRPYSHPRP
shrunken log2 fold change: -0.958

RRIRYRPPRLPRPRPRPYSKPRP
shrunken log2 fold change: -0.124

RRIRYRPPRLPRPRPRPYSYPRP
shrunken log2 fold change: -0.395

RRIRYRPPRLPRPRPRPYTYPRP
shrunken log2 fold change: -0.438

RRIRYRPPRLPRPRPRPYVFPRP
shrunken log2 fold change: -0.0427

RRIRYRPPRLPRPRPRPYWLPRP
shrunken log2 fold change: -1.14

RRIRYRPPRLPRPRPRPYYIPRP
shrunken log2 fold change: -1.83

RRIRYRPPRLPRPRPRPYYMPRP
shrunken log2 fold change: -1.06

Source: the supplement of paper PMC9112550, “Optimization of the antimicrobial peptide Bac7 by deep mutational scanning” (BMC Biology, 2022)
